Non-standard residues stand in square brackets, D forms with d. No end group written: not given here. Cit = NC(=O)NCCC[C@H](N)C(=O)O
Columns and labels:
CFC-1 [1] = biological target: T1, CFC-1; assay: ELISA, Ab 2 ug/well
T1 construct: Positive control for anti-citrulline reactivity; also called cfc1 XG; Cfc1-peptide
Procedure: (§1) Biotin and citrulline-containing peptides derived from histone 2A were immobilized on NEUTRAVIDIN®-coated 96-well ELISA plates (0.3 μg/well). CFC-1 and CFC-0 were coated at the same concentration and served as positive and negative controls, respectively, for specific anti-citrulline reactivity and as coating controls. Non-coated wells were used to test for aspecific binding of the antibodies. […] Detection of bound anti-citrulline antibodies was performed by incubating the wells with rabbit anti-human HRP (1:2000) for 1 hour at RT followed by incubation with TMB substrate. The resulting OD (y-axis) is a measure for antibody binding.

[2] = biological target: T2, peptide no. 1 (human histone 2A) (human, also: biotin-labelled); assay: ELISA, Ab 2 ug/well
T2 construct: also called peptide 1; AAASGXGKQGGK
T2 peptide: AAASG[Cit]GKQGGK
Procedure: as §1

[3] = biological target: T3, peptide no. 4 (human histone 2A) (human, also: biotin-labelled); assay: ELISA, Ab 2 ug/well
T3 construct: also called peptide 4
T3 peptide: QFPVG[Cit]VHRLLR
Procedure: as §1

[4] = biological target: T4, peptide no. 5 (human histone 2A) (human, also: biotin-labelled); assay: ELISA, Ab 2 ug/well
T4 construct: also called peptide 5
T4 peptide: VGRVH[Cit]LLRKGN
Procedure: as §1

[5] = biological target: T5, peptide no. 6 (human histone 2A) (human, also: biotin-labelled); assay: ELISA, Ab 2 ug/well
T5 construct: also called peptide 6
T5 peptide: VHRLL[Cit]KGNYSE
Procedure: as §1

[6] = biological target: T6, peptide no. 7 (human histone 2A) (human, also: biotin-labelled); assay: ELISA, Ab 2 ug/well
T6 construct: also called peptide 7
T6 peptide: GNYSE[Cit]VGAGAP
Procedure: as §1

[7] = biological target: T7, peptide no. 8 (human histone 2A) (human, also: biotin-labelled); assay: ELISA, Ab 2 ug/well
T7 construct: also called peptide 8
T7 peptide: AGNAA[Cit]DNKKTR
Procedure: as §1

[8] = biological target: T8, peptide no. 9 (human histone 2A) (human, also: biotin-labelled); assay: ELISA, Ab 2 ug/well
T8 construct: also called peptide 9
T8 peptide: DNKKT[Cit]IIPRHL
Procedure: as §1

[9] = biological target: T9, peptide no. 12 (human histone 2A) (human, also: biotin-labelled); assay: ELISA, Ab 2 ug/well
T9 construct: also called peptide 12
T9 peptide: NKLLG[Cit]VTIAQG
Procedure: as §1

CFC-1 [10] = biological target: T1, CFC-1; assay: ELISA, Ab 0.4 ug/well
Procedure: as §1

[11] = biological target: T2, peptide no. 1 (human histone 2A); assay: ELISA, Ab 0.4 ug/well
Procedure: as §1

[12] = biological target: T10, peptide no. 2 (human histone 2A) (human, also: biotin-labelled); assay: ELISA, Ab 0.4 ug/well
T10 construct: also called peptide 2
T10 peptide: AKAKS[Cit]SSRAGL
Procedure: as §1

[13] = biological target: T11, peptide no. 3 (human histone 2A) (human, also: biotin-labelled); assay: ELISA, Ab 0.4 ug/well
T11 construct: also called peptide 3
T11 peptide: KSRSS[Cit]AGLQFP
Procedure: as §1

[14] = biological target: T3, peptide no. 4 (human histone 2A); assay: ELISA, Ab 0.4 ug/well
Procedure: as §1

[15] = biological target: T4, peptide no. 5 (human histone 2A); assay: ELISA, Ab 0.4 ug/well
Procedure: as §1

[16] = biological target: T5, peptide no. 6 (human histone 2A); assay: ELISA, Ab 0.4 ug/well
Procedure: as §1

[17] = biological target: T6, peptide no. 7 (human histone 2A); assay: ELISA, Ab 0.4 ug/well
Procedure: as §1

[18] = biological target: T7, peptide no. 8 (human histone 2A); assay: ELISA, Ab 0.4 ug/well
Procedure: as §1

[19] = biological target: T8, peptide no. 9 (human histone 2A); assay: ELISA, Ab 0.4 ug/well
Procedure: as §1

[20] = biological target: T12, peptide no. 10 (human histone 2A) (human, also: biotin-labelled); assay: ELISA, Ab 0.4 ug/well
T12 construct: also called peptide 10
T12 peptide: TRIIP[Cit]HLQLAI
Procedure: as §1

[21] = biological target: T13, peptide no. 11 (human histone 2A) (human, also: biotin-labelled); assay: ELISA, Ab 0.4 ug/well
T13 construct: also called peptide 11
T13 peptide: LQLAI[Cit]NDEELN
Procedure: as §1

[22] = biological target: T9, peptide no. 12 (human histone 2A); assay: ELISA, Ab 0.4 ug/well
Procedure: as §1

[23] = biological target: T14, human recombinant histone 2A (human); assay: ELISA, Ab 0.00064 ug/well
T14 construct: Non-deiminated; also called H2A
Description: (§2) The resulting OD (y-axis) is a measure for antibody binding. H1-recombinant histone 1; H1/p2-huPAD2 recombinant histone 1; H1/p4-huPAD4 recombinant histone 1, and so forth (x-axis).

[24] = biological target: T15, huPAD2-deiminated human recombinant histone 2A (human); assay: ELISA, Ab 0.00064 ug/well
T15 construct: also called H2A/p2; histone 2A/p2
Description: as §2

[25] = biological target: T16, huPAD4-deiminated human recombinant histone 2A (human); assay: ELISA, Ab 0.00064 ug/well
T16 construct: also called H2A/p4; histone 2A/p4
Description: as §2

[26] = biological target: T17, human recombinant histone 2B (human); assay: ELISA, Ab 0.00064 ug/well
T17 construct: Non-deiminated; also called H2B
Description: as §2

[27] = biological target: T18, huPAD2-deiminated human recombinant histone 2B (human); assay: ELISA, Ab 0.00064 ug/well
T18 construct: also called H2B/p2
Description: as §2

[28] = biological target: T19, huPAD4-deiminated human recombinant histone 2B (human); assay: ELISA, Ab 0.00064 ug/well
T19 construct: also called H2B/p4
Description: as §2

[29] = biological target: human recombinant histone 4 (human, UniProt P62805 2-103); assay: ELISA, Ab 0.00064 ug/well
Description: as §2

CFC-1 [30] = biological target: T1, CFC-1; assay: ELISA, Ab 0.00064 ug/well
Description: as §2

[31] = biological target: PREDICTED: similar to 60S ribosomal protein L29 (Cell surface heparin-binding protein HIP) [Homo sapiens] (Homo sapiens); assay: IP of deiminated HEK293 lysate + MS emPAI; reference RhmAb2.101
Procedure: (§3) Beads were subjected to three washes with 1 ml IPP500, one wash with 1 ml IPP150 (10 mM Tris/HCl pH 8.0, 150 mM NaCl, 0.1% NP40 and 0.1% TWEEN®-20), and subsequently incubated at room temperature with 300 p1 deiminated HEK293 lysate for 2 hours under constant rotation. Beads were washed three times with 1 ml of IPP150, after which a small part has been used for SDS-PAGE electrophoresis to determine if the IP procedure with the HEK293 cells was successful.
(§4) The exponentially modified protein abundance index (emPAI) was calculated for all validated proteins.

[32] = biological target: ribosomal protein L29 [Homo sapiens] (Homo sapiens); assay: as above
Procedure: as §3, §4

B1: RhmAb2.102 (antibody, human IgG1, lambda)
heavy: not shown
light: QSVLTQPPSMSAAPGQKVTISCSGSSSNIGNNYVSWYQQVPGTAPKLLIYDDNKRPSGIPGRFSGSKSATSATLGITGLQAGDEADYYCGSWDDNLSVVLFGGGTKLTVLGQPKAAPSVTLFPPSSEELQANKATLVCLISDFYPGAVTVAWKADSSPVKAGVETTTPSKQSNNKYAASSYLSLTPEQWKSHRSYSCQVTHEGSTVEKTVAPTECS
notes: Human IgG1 lambda; also called Rhm2.102
OD (CFC-1 [1]): 3.21 OD450 | OD [2]: 3.05 OD450 | OD [3]: 1.3 OD450 | OD [4]: 0.111 OD450 | OD [5]: 0.752 OD450 | OD [6]: 0.059 OD450 | OD [7]: 0.06 OD450 | OD [8]: 0.063 OD450 | OD [9]: 0.067 OD450 | OD (CFC-1 [10]): 3.06 OD450 | OD [11]: 2.8 OD450 | OD [12]: 0.136 OD450 | OD [13]: 0.154 OD450 | OD [14]: 0.564 OD450 | OD [15]: 0.082 OD450 | OD [16]: 0.333 OD450 | OD [17]: 0.064 OD450 | OD [18]: 0.061 OD450 | OD [19]: 0.057 OD450 | OD [20]: 0.051 OD450 | OD [21]: 0.064 OD450 | OD [22]: 0.061 OD450 | OD [23]: 0.057 OD450 | OD [24]: 0.077 OD450 | OD [25]: 0.075 OD450 | OD [26]: 0.052 OD450 | OD [27]: 0.052 OD450 | OD [28]: 0.055 OD450 | OD [29]: 0.06 OD450 | OD (CFC-1 [30]): 0.077 OD450 | Ratio 102/101 (emPAI) [31]: 1 ratio | Ratio 102/101 (emPAI) [32]: 0.5 ratio

Source: patent US20150307603A1 (MODIQUEST B V, published 2015)
